Here are results for two molecules from US20090196872A1.

In assay [1] the target is M2 protein expressed on A/HK/1/68 infected MDCK cells (influenza A virus A/HK/1/68). Nature of the assay: cell-based ELISA, half-saturating antibody concentration. To be noted: remark: other sources report otherwise.
Assay [2] concerns the target M2 truncated peptide NN15 (influenza A virus). The assay is described as follows: peptide ELISA, antibody at 10 ug/ml. In general terms: ELISA stands for enzyme-linked immunosorbent assay.
The target of assay [3] is M2 truncated peptide NM16 (influenza A virus). The assay is described as follows: peptide ELISA, antibody at 10 ug/ml.
Assay [4] concerns the target M2 truncated peptide M15 (influenza A virus). Nature of the assay: peptide ELISA, antibody at 10 ug/ml.
Assay [5] has as its target M2 truncated peptide NN9 (influenza A virus). Nature of the assay: peptide ELISA, antibody at 10 ug/ml.
In assay [6] the target is M2 truncated peptide CM12 (influenza A virus). Nature of the assay: peptide ELISA, antibody at 10 ug/ml.
In assay [7] the target is M2 truncated peptide CM15 (influenza A virus). Nature of the assay: peptide ELISA, antibody at 10 ug/ml.
Assay [8] deals with M2 truncated peptide M12 (influenza A virus). The assay is described as follows: peptide ELISA, antibody at 10 ug/ml.
Assay [9] deals with M2 truncated peptide NM13 (influenza A virus). Nature of the assay: peptide ELISA, antibody at 10 ug/ml.
Assay [10] addresses M2 peptide (extracellular 23-amino-acid peptide of influenza virus matrix M2 protein) (influenza A virus). The assay is described as follows: peptide ELISA, antibody at 10 ug/ml.
Assay [11] concerns the target M2 truncated peptide CM17 (influenza A virus). The assay is described as follows: peptide ELISA, antibody at 10 ug/ml.
Assay [12] has as its target M2 truncated peptide NM7 (influenza A virus). Nature of the assay: peptide ELISA, antibody at 10 ug/ml.
Assay [13] deals with M2 truncated peptide NM14 (influenza A virus). Nature of the assay: peptide ELISA, antibody at 10 ug/ml.
In assay [14] the target is M2 truncated peptide CM14 (influenza A virus). The assay is described as follows: peptide ELISA, antibody at 10 ug/ml.
The target of assay [15] is M2 truncated peptide NM11 (influenza A virus). The assay is described as follows: peptide ELISA, antibody at 10 ug/ml.
For assay [16], the target named is M2 truncated peptide NM10 (influenza A virus). The assay is described as follows: peptide ELISA, antibody at 10 ug/ml.
Assay [17] addresses M2 truncated peptide NM12 (N-terminal 12-amino acid peptide) (influenza A virus). The assay is described as follows: peptide ELISA, antibody at 10 ug/ml.
Assay [18] deals with M2 truncated peptide CM13 (influenza A virus). The assay is described as follows: peptide ELISA, antibody at 10 ug/ml.
The target of assay [19] is M2 truncated peptide NM17 (influenza A virus). The assay is described as follows: peptide ELISA, antibody at 10 ug/ml.
In assay [20] the target is M2 truncated peptide CM16 (influenza A virus). Nature of the assay: peptide ELISA, antibody at 10 ug/ml.
Assay [21] deals with M2 truncated peptide M16 (influenza A virus). The assay is described as follows: peptide ELISA, antibody at 10 ug/ml.
Assay [22] addresses M2 truncated peptide NM8 (influenza A virus). Nature of the assay: peptide ELISA, antibody at 10 ug/ml.

B1: human anti-M2 monoclonal antibody L66 (antibody)
chain 1: EVQLVESGGGVVRPGGSLRLSCAASGFTFDDYGMSWVRQAPGKGLEWVSGINWNGGSTGYADSVKGRFTISRDNAKNSLYLQMNSLRAEDTALYYCARDRVTMVRGVIMDYYGMDVWGQGTTVTVSS
chain 2: QTVVTQEPSLTVSPRGTVTLTCSSSTGAVTSGYYPGWFQLKPGQAPMSLIYSARKKHSWTPARFSGSLLGGKAALTLSGVQPEDEAEYYCLLYYGGAYVFGTGTKVTVLG
For B1, in [1], the dissociation constant (Kd) – broadly, the equilibrium constant for the complex coming apart – was found to be 531 pM. Also, the ELISA (OD450) came to 0.28 OD450 in assay [2]; 2.52 OD450 in assay [3]; 0.2 OD450 in assay [4]; 0.16 OD450 in [5]; 0.16 OD450 in [6]; 0.13 OD450 in [7]. The ELISA (OD450) is 0.19 OD450 in assay [8]; 0.17 OD450 in [9]; 1.04 OD450 in [10]; 0.14 OD450 in assay [11]; 0.18 OD450 in assay [12]; 0.16 OD450 in [13]. Further, the ELISA (OD450) came to 0.13 OD450 in assay [14]; 0.17 OD450 in assay [15]; 0.16 OD450 in assay [16]; 0.12 OD450 in [17]; 0.15 OD450 in [18]; 1.92 OD450 in assay [19]. The ELISA (OD450) in [20] was determined as 0.13 OD450; in assay [21], 0.27 OD450; in assay [22], 0.18 OD450.

B2: human anti-M2 monoclonal antibody C40G1 (antibody)
chain 1: QLQLQESGPGLVKPSETLSLTCTVSGGSISSSFYYCGWIRQPPGKGLEWIGSIYYRGSTYYNPSLKSRVTISVDTSKNQFSLKLSSVTAADTAVYYCARRVTMVRGVKGDYFDYWGQGTLVTVSS
chain 2: DIQMTQSPSSLSASVGDRVTITCRASQGISSWLAWYQQKPEKVPKSLIYAASSLQSGVPSRFSGSGSGTDFTLTISSLQPEDFATYYCQQYNYYPLTFGGGTKVEIKR
Molecule B2 came in with a Kd in assay [1] of 542 pM. In addition, the ELISA (OD450) in assay [2] was 2.67 OD450; in assay [3] it was 2.17 OD450; in assay [4], 1.93 OD450; in [5], 0.13 OD450; in assay [6] it was 0.11 OD450; in assay [7] it was 0.1 OD450. The ELISA (OD450) in assay [8] was 1.95 OD450; in assay [9], 1.82 OD450; in assay [10] it was 2.38 OD450; in [11] it was 3.01 OD450; in assay [12], 0.09 OD450; in assay [13] it was 1.93 OD450. Besides, the ELISA (OD450) in assay [14] amounted to 0.1 OD450; in [15], 0.15 OD450; in assay [16] it was 0.11 OD450; in [17], 0.16 OD450; in assay [18], 0.11 OD450; in assay [19] it was 2.18 OD450. In addition, the ELISA (OD450) was found to be 1.41 OD450 in [20], 1.75 OD450 in [21] and 0.1 OD450 in assay [22].
